Test results published in patent US20080108569A1, “Compositions and Methods for Treating Diseases Associated With Phlpp” (The Regents of the University of California, priority 2005, published 2008).

Biological target: endogenous Akt (UniProt P31749)
Experiment: cell-based or functional assay

endogenous Akt, sequence (P31749 whole entry): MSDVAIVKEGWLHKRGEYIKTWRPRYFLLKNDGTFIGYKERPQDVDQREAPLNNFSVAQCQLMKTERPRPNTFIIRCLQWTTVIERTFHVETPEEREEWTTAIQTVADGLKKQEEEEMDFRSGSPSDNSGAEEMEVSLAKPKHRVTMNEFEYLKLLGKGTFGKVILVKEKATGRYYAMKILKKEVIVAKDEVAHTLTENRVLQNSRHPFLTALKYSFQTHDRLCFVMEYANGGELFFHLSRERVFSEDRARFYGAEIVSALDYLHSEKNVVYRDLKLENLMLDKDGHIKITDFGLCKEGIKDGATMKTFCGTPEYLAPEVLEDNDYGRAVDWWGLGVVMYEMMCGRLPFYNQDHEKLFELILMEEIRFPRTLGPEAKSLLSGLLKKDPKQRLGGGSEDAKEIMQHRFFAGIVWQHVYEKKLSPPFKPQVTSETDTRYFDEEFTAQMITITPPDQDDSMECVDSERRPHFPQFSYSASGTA

Substance	increase in Akt phosphorylation at Ser 473 on siRNA knock down of PHLPP2 in 293T cells	increase in Ser473 phosphorylation on siRNA knock down of PHLPP2 in H157 cells
endogenous PHLPP2 (from UniProt Q6ZVD8 1-1323)	2 fold	
endogenous PHLPP2 (from UniProt Q6ZVD8 1-1323) (enzyme)		4 fold
